According to publication PMC5778702:

These substances were tested against pCMV-HA-H (HA-H), hemagglutinin (H) protein of Peste des petits ruminants virus with HA tag (Peste des petits ruminants virus) (assay: SPR; […]; Biacore 3000, 25 °C, HBS-EP (10 mM HEPES pH 7.4, 150 mM NaCl, 3 mM EDTA, 0.005% P20); […]).

First: pCMV-HA-HRA (HA-HRA), heptad repeat region A of the PPRV F protein with HA tag (domain or fragment)
Second: pCMV-HA-F (HA-F), fusion (F) protein of Peste des petits ruminants virus with HA tag (natural protein)
The Kd of the first is 5700-fold higher: 108 µM for the first, 0.0191 µM for the second.

“pCMV-HA-HRB (HA-HRB), heptad repeat region B of the PPRV F protein with HA tag (domain or fragment)” showed a Kd of 0.26 µM.

Compared with “pCMV-HA-HRA (HA-HRA), heptad repeat region A of the PPRV F protein with HA tag (domain or fragment)”, “pCMV-HA-F (HA-F), fusion (F) protein of Peste des petits ruminants virus with HA tag (natural protein)” is 4.4-fold lower in koff: 0.00414 s⁻¹ for the first, 0.000937 s⁻¹ for the second.

“pCMV-HA-HRB (HA-HRB), heptad repeat region B of the PPRV F protein with HA tag (domain or fragment)” showed a koff of 0.00299 s⁻¹.

First: pCMV-HA-HRA (HA-HRA), heptad repeat region A of the PPRV F protein with HA tag (domain or fragment)
Second: pCMV-HA-F (HA-F), fusion (F) protein of Peste des petits ruminants virus with HA tag (natural protein)
The kon of the first is 1300-fold lower: 38.2 M⁻¹ s⁻¹ for the first, 49100 M⁻¹ s⁻¹ for the second.

Substance “pCMV-HA-HRB (HA-HRB), heptad repeat region B of the PPRV F protein with HA tag (domain or fragment)” has a kon of 11500 M⁻¹ s⁻¹.
